Assay [1] deals with Large subunit-rSCFV5 fusion protein. Description: cell-based or functional assay.
Assay [2] shares this target. Description: cell-based or functional assay. This is another data set of the same source.

22 molecules from EP4700040A1, “PEPTIDE AND LUMINESCENT COMPLEX CONTAINING SAME” (Shenzhen Loggene Life Science & Technology Co., Ltd., priority 2023, dated 2024) can be followed below.

Where two headings read alike, the source gives them in different places.

Chain of Large subunit-rSCFV5 fusion protein (chain, as listed by the source): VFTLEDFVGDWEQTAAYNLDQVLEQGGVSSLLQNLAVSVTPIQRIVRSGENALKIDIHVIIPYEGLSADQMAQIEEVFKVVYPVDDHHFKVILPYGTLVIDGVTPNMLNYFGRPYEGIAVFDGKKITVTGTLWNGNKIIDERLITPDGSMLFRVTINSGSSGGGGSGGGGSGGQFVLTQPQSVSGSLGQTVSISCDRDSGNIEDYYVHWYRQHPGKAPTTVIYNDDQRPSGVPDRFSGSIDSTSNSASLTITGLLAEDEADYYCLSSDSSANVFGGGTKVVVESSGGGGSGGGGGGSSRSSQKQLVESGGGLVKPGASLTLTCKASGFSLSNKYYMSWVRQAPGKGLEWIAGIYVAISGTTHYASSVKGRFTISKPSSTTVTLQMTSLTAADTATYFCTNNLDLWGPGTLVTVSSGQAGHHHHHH

B1: rSCFV18-small subunit mutant fusion protein RB223 (peptide, part only; not given: rSCFV18 scFv part, part only)
chain, part: VEGYRLFNRKW
For B1, in assay [1], the RLU, PCT+ is 39200 RLU; the RLU, PCT- amounted to 1100 RLU; the Signal-to-noise ratio was determined as 34.7.

B2: rSCFV18-small subunit mutant fusion protein RB122 (peptide, part only; not given: rSCFV18 scFv part, part only)
chain, part: VEGYRLFNRVG
For B2, in assay [1], the RLU, PCT+ amounted to 55400 RLU; the RLU, PCT- is 2600 RLU; the Signal-to-noise ratio is 20.2.

B3: rSCFV18-small subunit mutant fusion protein RB027 (peptide, part only; not given: rSCFV18 scFv part, part only)
chain, part: VEGYRLFNRVS
Regarding B3, in assay [1], the RLU, PCT+ stood at 102000 RLU; the RLU, PCT- was 4320 RLU; the Signal-to-noise ratio was 22.6.

B4: small subunit mutant fusion protein RD-092 (peptide, part only; not given: scFv part; template fusion not stated, part only)
chain, part: IEGYRLFDRKS
In assay [1], B4 yielded a complementary activity, luminescence at 3 min of 4900 RLU and a complementary activity, luminescence at 6 min of 4540 RLU.

B5: rSCFV18-small subunit mutant fusion protein RC-242 (peptide, part only; not given: rSCFV18 scFv part, part only)
chain, part: VNGWRIFDKKS
For B5, in assay [1], the RLU, PCT+ is 9040 RLU; the RLU, PCT- was found to be 1520 RLU; the Signal-to-noise ratio came out at 5.9.

B6: rSCFV18-small subunit mutant fusion protein RA141 (peptide, part only; not given: rSCFV18 scFv part, part only)
chain, part: VDGWRLHEKIS
Turning to B6, in assay [1], the RLU, PCT+ came to 30600 RLU; the RLU, PCT- was 463 RLU; the Signal-to-noise ratio came to 65.1. In addition, in assay [2], the Signal-to-noise ratio at 1000 pg/ml is 8.6, the normalised luminescence at PCT 0 pg/ml was found to be 5000, the normalised luminescence at PCT 1.1 pg/ml is 4930 and the normalised luminescence at PCT 3.3 pg/ml turned out to be 5410. Also, in assay [2], the normalised luminescence at PCT 10 pg/ml came to 6020, the normalised luminescence at PCT 100 pg/ml worked out at 8680, the normalised luminescence at PCT 1000 pg/ml was 42800 and the normalised luminescence at PCT 10000 pg/ml was 333000. In assay [2], this molecule displayed a normalised luminescence at PCT 100000 pg/ml of 1.4e+06.

B7: small subunit mutant fusion protein RD-086 (peptide, part only; not given: scFv part; template fusion not stated, part only)
chain, part: AEGYRLFDRKS
In assay [1], B7 yielded a complementary activity, luminescence at 3 min of 3390 RLU and a complementary activity, luminescence at 6 min of 3220 RLU.

B8: rSCFV18-small subunit mutant fusion protein RB172 (peptide, part only; not given: rSCFV18 scFv part, part only)
chain, part: VEGYRLFEKVW
On to B8, for which, in assay [1], the RLU, PCT+ worked out at 41400 RLU; the RLU, PCT- is 1090 RLU; the Signal-to-noise ratio was determined as 36.9.

B9: rSCFV18-small subunit mutant fusion protein RC-228 (peptide, part only; not given: rSCFV18 scFv part, part only)
chain, part: VSGYRLFDRKS
On to B9, for which, in assay [1], the RLU, PCT+ came out at 16300 RLU; the RLU, PCT- came to 3000 RLU; the Signal-to-noise ratio was determined as 5.4.

B10: rSCFV18-small subunit mutant fusion protein RB149 (peptide, part only; not given: rSCFV18 scFv part, part only)
chain, part: VEGYRLFEKKL
In the case of B10, in assay [1], the RLU, PCT+ worked out at 79100 RLU; the RLU, PCT- came out at 3590 RLU; the Signal-to-noise ratio is 21.

B11: rSCFV18-small subunit mutant fusion protein RC-129 (peptide, part only; not given: rSCFV18 scFv part, part only)
chain, part: VSGYRIFEKKS
Take B11: in assay [1], the RLU, PCT+ turned out to be 12000 RLU; the RLU, PCT- is 2070 RLU; the Signal-to-noise ratio came out at 5.8.

B12: rSCFV18-small subunit mutant fusion protein RB284 (peptide, part only; not given: rSCFV18 scFv part, part only)
chain, part: VEGYRLFNKEW
With B12, in assay [1], the RLU, PCT+ stood at 3990 RLU; the RLU, PCT- is 302 RLU; the Signal-to-noise ratio stood at 12.2. Moreover, in assay [2], the Signal-to-noise ratio at 1000 pg/ml turned out to be 4.9, the normalised luminescence at PCT 0 pg/ml was found to be 5000, the normalised luminescence at PCT 1.1 pg/ml turned out to be 5090 and the normalised luminescence at PCT 3.3 pg/ml was found to be 5290. In assay [2], this molecule returned a normalised luminescence at PCT 10 pg/ml of 5530, a normalised luminescence at PCT 100 pg/ml of 7040, a normalised luminescence at PCT 1000 pg/ml of 24700 and a normalised luminescence at PCT 10000 pg/ml of 188000. For the same molecule, the normalised luminescence at PCT 100000 pg/ml in assay [2] stood at 862000.

B13: rSCFV18-small subunit mutant fusion protein RA120 (peptide, part only; not given: rSCFV18 scFv part, part only)
chain, part: VSGWRIHEKIS
For B13, in assay [1], the RLU, PCT+ came out at 81100 RLU; the RLU, PCT- came out at 2140 RLU; the Signal-to-noise ratio was 36.9. Also, in assay [2], the Signal-to-noise ratio at 1000 pg/ml was determined as 18, the normalised luminescence at PCT 0 pg/ml was 5000, the normalised luminescence at PCT 1.1 pg/ml was 4900 and the normalised luminescence at PCT 3.3 pg/ml came to 5260. Further, in assay [2], the normalised luminescence at PCT 10 pg/ml was found to be 5860, the normalised luminescence at PCT 100 pg/ml turned out to be 13400, the normalised luminescence at PCT 1000 pg/ml worked out at 90100 and the normalised luminescence at PCT 10000 pg/ml was found to be 695000. Moreover, the normalised luminescence at PCT 100000 pg/ml in assay [2] is 2e+06.

B14: rSCFV18-small subunit mutant fusion protein RC-232 (peptide, part only; not given: rSCFV18 scFv part, part only)
chain, part: VEGWRLFDRKS
Take B14: in assay [1], the RLU, PCT+ worked out at 18300 RLU; the RLU, PCT- stood at 3180 RLU; the Signal-to-noise ratio was 5.8.

B15: rSCFV18-small subunit mutant fusion protein RC-263 (peptide, part only; not given: rSCFV18 scFv part, part only)
chain, part: VDGYRLFEKVS
In the case of B15, in assay [1], the RLU, PCT+ worked out at 4770 RLU; the RLU, PCT- was found to be 685 RLU; the Signal-to-noise ratio amounted to 7; the Signal-to-noise ratio at 1000 pg/ml stood at 5.8. Also, in assay [1], the normalised luminescence at PCT 0.0 pg/ml is 5000, the normalised luminescence at PCT 1 pg/ml came to 5130, the normalised luminescence at PCT 3 pg/ml was 5230 and the normalised luminescence at PCT 10 pg/ml worked out at 5190. In assay [1], this molecule had a normalised luminescence at PCT 30 pg/ml of 5650, a normalised luminescence at PCT 100 pg/ml of 7130, a normalised luminescence at PCT 1000 pg/ml of 28800 and a normalised luminescence at PCT 10000 pg/ml of 241000. In assay [1], this molecule displayed a normalised luminescence at PCT 100000 pg/ml of 1.56e+06 and a normalised luminescence at PCT 250000 pg/ml of 2.23e+06.

B16: rSCFV18-small subunit mutant fusion protein RB150 (peptide, part only; not given: rSCFV18 scFv part, part only)
chain, part: VEGYRLFERVL
B16: in assay [1], the RLU, PCT+ worked out at 53900 RLU; the RLU, PCT- was 1630 RLU; the Signal-to-noise ratio stood at 32.1.

B17: rSCFV18-small subunit mutant fusion protein RC-113 (peptide, part only; not given: rSCFV18 scFv part, part only)
chain, part: VSGYRIFEKKW
As for B17, in assay [1], the RLU, PCT+ is 6210 RLU; the RLU, PCT- is 1180 RLU; the Signal-to-noise ratio amounted to 5.3.

B18: rSCFV18-small subunit mutant fusion protein RC-041 (peptide, part only; not given: rSCFV18 scFv part, part only)
chain, part: VSGWRIFDRKS
On to B18, for which, in assay [1], the RLU, PCT+ was determined as 11800 RLU; the RLU, PCT- amounted to 2500 RLU; the Signal-to-noise ratio was determined as 4.7.

B19: small subunit mutant fusion protein RD-099 (peptide, part only; not given: scFv part; template fusion not stated, part only)
chain, part: AEPYRIFDRKS
In assay [1], B19 came in with a complementary activity, luminescence at 3 min of 221 RLU and a complementary activity, luminescence at 6 min of 52 RLU.

B20: rSCFV18-small subunit mutant fusion protein RB239 (peptide, part only; not given: rSCFV18 scFv part, part only)
chain, part: VEGYRLFDKKW
Turning to B20, in assay [1], the RLU, PCT+ was determined as 31900 RLU; the RLU, PCT- came to 465 RLU; the Signal-to-noise ratio is 67.7; the Signal-to-noise ratio at 1000 pg/ml is 31.1. In assay [1], this molecule displayed a luminescence at PCT 0 pg/ml of 288, a luminescence at PCT 1.37 pg/ml of 301, a luminescence at PCT 4.12 pg/ml of 332 and a luminescence at PCT 12.35 pg/ml of 407. In assay [1], this molecule gave a luminescence at PCT 37.04 pg/ml of 590, a luminescence at PCT 111.1 pg/ml of 1320, a luminescence at PCT 333.3 pg/ml of 3360 and a luminescence at PCT 1000 pg/ml of 8950. In addition, in assay [2], the Signal-to-noise ratio at 1000 pg/ml was found to be 11.5, the normalised luminescence at PCT 0 pg/ml turned out to be 5000, the normalised luminescence at PCT 1.1 pg/ml worked out at 5530 and the normalised luminescence at PCT 3.3 pg/ml was determined as 5620. Further, in assay [2], the normalised luminescence at PCT 10 pg/ml is 5990, the normalised luminescence at PCT 100 pg/ml turned out to be 11000, the normalised luminescence at PCT 1000 pg/ml was found to be 57600 and the normalised luminescence at PCT 10000 pg/ml was 466000. The molecule also displayed a normalised luminescence at PCT 100000 pg/ml in assay [2] of 2.17e+06.

B21: rSCFV18-small subunit mutant fusion protein RC-261 (peptide, part only; not given: rSCFV18 scFv part, part only)
chain, part: VSGYRLFDKKW
Consider B21, for which, in assay [1], the RLU, PCT+ came out at 7220 RLU; the RLU, PCT- was 1620 RLU; the Signal-to-noise ratio was found to be 4.5.

B22: rSCFV18-small subunit mutant fusion protein RC-237 (peptide, part only; not given: rSCFV18 scFv part, part only)
chain, part: VEGWRLFDRVS
In the case of B22, in assay [1], the RLU, PCT+ is 10800 RLU; the RLU, PCT- stood at 2190 RLU; the Signal-to-noise ratio amounted to 5.
